Experiments:
[1] = biological target: anti-S1 fragment of SARS-CoV-2's spike protein antibody; experiment: lateral flow dipstick; capture antibody trapped in 5% acrylamide hydrogel; S1-coated gold nanoparticles as reporter (FIG. 3, panel b)
[2] = biological target: anti-S1 fragment of SARS-CoV-2's spike protein antibody; experiment: lateral flow dipstick; capture antibody immobilized by physical adsorption; S1-coated gold nanoparticles as reporter (FIG. 3, panel a)
[3] = biological target: anti-S1 fragment of SARS-CoV-2's spike protein antibody; experiment: lateral flow dipstick; separate experiment with improved hydrogel and streptavidin; S1-coated gold nanoparticles as reporter (FIG. 3, panel d)
[4] = biological target: anti-S1 fragment of SARS-CoV-2's spike protein antibody; experiment: lateral flow dipstick; capture antibody held by streptavidin trapped in the hydrogel; S1-coated gold nanoparticles as reporter (FIG. 3, panel c)

limit of detection [1]: 1 ng | limit of detection [2]: 10 ng | limit of detection [3]: 0.05 ng | limit of detection [4]: 0.1 ng
Substance: biotin-SP-conjugated anti-human IgG Fc (antibody)

Source: patent US20230288413A1
